What was measured:
[1] = system: Jurkat T cells; test: Apoptosis/toxicity of peptide alone in Jurkat T cells, Annexin V/PI; assay type: cell-based
Description: FIG. 8A: Flow cytometry histogram showing propidium iodide (PI) (FL3) labeling of Jurkat T cells without or with 200 μM of hGal-7(129-135). FIG. 8B: Histogram showing the average percentage of Annexin-V (AV) positive Jurkat T cells in the presence of increasing concentrations of […]. FIG. 8C: Flow cytometry histogram showing PI (FL3) labeling of Jurkat T cells without or with 200 μM of PACAP28-38 FIG. 8D: Histogram showing the average percentage of AV-positive Jurkat T cells in the presence of increasing concentrations of PACAP28-38. The percentage of cell death was obtained as described above. Error bars represent standard deviation. Significance was calculated with respect to AF samples. Results are representative of three independent experiments.
(§1) Apoptosis assays with Annexin V/PI staining. Apoptosis was measured by flow cytometry using FITC-labeled Annexin V (Biolegend®, San Diego, Calif., USA) and propidium iodide. Briefly, the corresponding dilutions of recombinant hGal-7 and hGal-7(129-135) peptides were pre-incubated for 1 h at 4° C. in serum-free RPMI 1640 medium. 2.5×10^5 Jurkat cells were then harvested in the same medium and incubated with their corresponding dilutions at 37° C. for 4 h. Cells were washed once in PBS and once in binding buffer (0.01 M HEPES, 0.14 M NaCl, 2.5 mM CaCl2, pH 7.4). Cells were then incubated for 15 min with Annexin V in the dark at room temperature. A total of 400 μL of binding buffer containing 0.25 μg/mL propidium iodide was added to the cells before analysis by flow cytometry.

[2] = system: Jurkat T cells; test: hGal-7-induced apoptosis of Jurkat T cells, Annexin V/PI flow cytometry; assay type: cell-based; settings: 4 h at 37° C., FIGS. 5B and 5C
Description: as §1
It was thus tested whether hGal-7(129-135) could modulate the binding of hGal-7 on Jurkat T cells, a cell model that is commonly used to test the pro-apoptotic activity of galectins. For this purpose, recombinant hGal-7 was labeled with fluorescein isothiocyante (FITC) and its binding on the surface of Jurkat T cells was measured by flow cytometry in absence or presence of increasing concentrations of hGal-7(129-135). […] The effect of hGal-7(129-135) was specific, statistically significant (FIG. 4B), and consistent with the increased number of monomers, which bind to surface glycosylated receptors through their CRDs. […]

Substance: H-Leu-Asp-Ser-Val-Arg-Ile-Phe-NH2 (H-LDSVRIF-NH2; listed as Homo sapiens) [hGal-7(129-135), peptide corresponding to residues 129-135 of hGal-7]
- toxicity in Jurkat T cells ([1]; PI labeling at 200 μM, Annexin V at increasing concentrations, FIGS. 8A to 8D): do not induce toxicity in Jurkat T cells
- induction of apoptosis by peptide alone ([1]; peptide alone, FIG. 8): did not induce apoptosis in Jurkat T cells
- inhibition of hGal-7-induced apoptosis, Annexin V/PI staining [2]: confirmed
